{
  "source": "patent US20240335558A1",
  "about": "“ISOLATED POLYPEPTIDE AND USE THEREOF” (GLYCO-THERAPY BIOTECHNOLOGY CO., LTD., priority 2021, published 2024)",
  "molecules": {"B1": {"name": "HpFT-2HR: H. pylori α-1,3-fucosyltransferase variant: catalytically active domain, two heptapeptide repeat sequences and C-terminus fused His tag (protein)", "chain": "MFQPLLDAFIESASIEKMVSKSPPPPLKIAVANWWGDEEIKEFKKSVLYFILSQRYAITLHQNPNESSDLVFSNPLGAARKILSYQNTKRVFYTGENESPNFNLFDYAIGFDELDFNDRYLRMPLYYAHLHYEAELVNDTTAPYKLKDNSLYALKKPSHHFKENHPNLCAVVNDESDLLKRGFASFVASNANAPMRNAFYDALNSIEPVTGGGSVRNTLGYKVGNKSEFLSQYKFNLCFENSQGYGYVTEKILDAYFSHTIPIYWGSPSVAKDFNPKSFVNVHDFNNFDEAIDYIKYLHTHPNAYLDMLYENPLNTLDGKAYFYQDLSFKKILDFFKTILENDTIYHNNPFIFYRDLHEPLISIDDLRVNYDDLRVNYLEHHHHHH", "modifications": "Catalytically active domain of Helicobacter pylori Alpha-(1,3)-fucosyltransferase (GenBank No.AAD07710.1) with 2 heptapeptide repeats and a C-terminal His tag"}},
  "type_in_all_cases": "biochemical",
  "key": {"[1]": {"system": "Trastuzumab-(GalNAzβ1,4)GlcNAc", "experiment": "HpFT-2HR and HpFT-4HR transferring GDP-FAmP4Biotin or GDP-FAzP4Biotin to Trastuzumab-(GalNAzβ1,4)GlcNAc", "settings": "enzyme 0.5 mg/mL, 6 h, FIG. 6(B)", "procedure": "(§1) To 40 mM Tris-HCl (pH 7.5) buffer were added Trastuzumab-(Fucα1,6)(Galβ1,4)GlcNAc (2 mg/mL final), GDP-FAmP4Biotin (1 mM final), MgCl2 (20 mM final), and different HpFT enzymes (HpFT-4HR, HpFT-4HR(M4), HpFT-4HR(M7), HpFT-6HR, HpFT-3HR, HpFT-2HR, HpFT-1HR or HpFT-0HR) (0.5 mg/mL final) in sequence, and the resulting mixed solution was allowed to react at 30° C. for 1 h. Three parallels were set up for each group. After the reaction time point was reached, to the reaction solution was added 10 mM LacNA, and the reaction was terminated by a desalting column (Zeba™ Spin Desalting Columns/2 ml/40K, Thermo Fisher Scientific), and finally mass spectrometry was carried out and % of conversion was calculated. % of conversion=(MAR0 peak intensity*0+MAR1peak intensity*1+MAR2 peak intensity*2)/2* (MAR0 peak intensity+MAR1 peak intensity+MAR2 peak intensity)*100%.\nTo 40 mM Tris-HCl (pH 7.5) buffer were added Trastuzumab-(GalNAzβ1,4)GlcNAc (2 mg/mL final), GDP-FAmP4Biotin or GDP-FAzP4Biotin (1 mM final), MgCl2 (20 mM final), and HpFT-2HR or HpFT-4HR (0.5 mg/mL final) in sequence, and the resulting mixed solution was allowed to react at 30 t for 6 h. Three parallels were set up for each group. After the reaction time point was reached, to the reaction solution was added 10 mM LacNAc, and the reaction was terminated by a desalting column (Zeba™ Spin Desalting Columns/2 ml/40K, Thermo Fisher Scientific), and finally mass spectrometry was carried out and % of conversion was calculated. % of conversion was calculated according to Example 18."}, "[2]": {"system": "Trastuzumab-(Fucα1,6)(GalNAzβ1,4)GlcNAc", "experiment": "Transfer of GDP-FAmP4Biotin to Trastuzumab-(Fucα1,6)(GalNAzβ1,4)GlcNAc by different HpFTs", "settings": "donor GDP-FAmP4Biotin 1 mM, enzyme 0.5 mg/mL, 30° C., 3 h; FIG. 3"}, "[3]": {"system": "Trastuzumab-G2F", "experiment": "HpFT-2HR and HpFT-4HR transferring GDP-FAmSucMMAE to Trastuzumab-G2F", "settings": "donor 1 mM, enzyme 0.5 mg/mL, 30° C., 3 h and 6 h; FIG. 7A", "procedure": "(§2) To 40 mM Tris-HCl (pH 7.5) buffer were added Trastuzumab-G2F (2 mg/mL final), GDP-FAmP4Biotin (1 mM final), MgCl2 (20 mM final), and different HpFT enzymes (HpFT-4HR, HpFT-4HR(M4), HpFT-4HR(M7), HpFT-6HR, HpFT-3HR, HpFT-2HR, HpFT-1HR, or HpFT-0HR) (0.5 mg/mL final) in sequence, and the resulting mixed solution was allowed to react at 30° C. for 3 h. Three parallels were set up for each group. After the reaction time point was reached, to the reaction solution was added 10 mM LacNAc (N-acetyl-D-lactosamine), and the reaction was terminated by a desalting column (Zeba™ Spin Desalting Columns/2 ml/40K, Thermo Fisher Scientific), and finally mass spectrometry was carried out and % of conversion was calculated. % of conversion=(MAR0 peak intensity*0+MAR1peak intensity*1+MAR2 peak intensity*2+MAR3 peak intensity*3+MAR4 peak intensity*4)/4* (MAR0 peak intensity+MAR1 peak intensity+MAR2 peak intensity+MAR3 peak intensity+MAR4 peak intensity)*100%.\n(§3) To 40 mM Tris-HCl (pH 7.5) buffer were added Trastuzumab-G2F or Durvalumab-G2F (2 mg/mL final), GDP-FAmSucMMAE (1 mM final), MgCl2 (20 mM final), and HpFT-2HR or HpFT-4HR (0.5 mg/mL final) in sequence, and the resulting mixed solution was allowed to react at 30° C. for 3 h and 6 h. Three parallels were set up for each group. […]"}, "[4]": {"system": "Trastuzumab-(GalNAzβ1,4)GlcNAc", "experiment": "Transfer of GDP-FAmP4Biotin to Trastuzumab-(GalNAzβ1,4)GlcNAc by different HpFTs", "settings": "donor GDP-FAmP4Biotin 1 mM, enzyme 0.5 mg/mL, 30° C., 3 h; FIG. 4"}, "[5]": {"system": "Trastuzumab-(Galβ1,4)GlcNAc", "experiment": "HpFT-2HR and HpFT-4HR transferring GDP-FAmSucMMAE to Trastuzumab-(Galβ1,4)GlcNAc", "settings": "donor 1 mM, enzyme 0.5 mg/mL, 30° C., 1 h and 2 h; FIG. 9", "procedure": "as §1\nas §3, with “added Trastuzumab-(Galβ1,4)GlcNAc” for “added Trastuzumab-G2F or Durvalumab-G2F”, “for 1” for “for 3”, “and 2” for “and 6”"}, "[6]": {"system": "Durvalumab-G2F", "experiment": "HpFT-2HR and HpFT-4HR transferring GDP-FAmSucMMAE to Durvalumab-G2F", "settings": "donor 1 mM, enzyme 0.5 mg/mL, 30° C., 3 h and 6 h; FIG. 7B", "procedure": "as §2, §3"}, "[7]": {"system": "Trastuzumab-(GalNAzβ1,4)GlcNAc", "experiment": "HpFT-2HR and HpFT-4HR transferring GDP-FAmSucMMAE to Trastuzumab-(GalNAzβ1,4)GlcNAc", "settings": "donor 1 mM, enzyme 0.5 mg/mL, 30° C., 3 h and 6 h; FIG. 8A", "procedure": "as §1\nas §3, with “Trastuzumab-(GalNAzβ1,4)GlcNAc” for “Trastuzumab-G2F”, “Durvalumab-(GalNAzβ1,4)GlcNAc” for “Durvalumab-G2F”"}},
  "data": [
    {"molecule": "B1", "values": [
      {"measurement": "activity in catalyzing the transfer of GDP-FAmP4Biotin relative to transfer of GDP-FAzP4Biotin", "setting": "[1]; donor 1 mM", "value": "significantly higher"},
      {"measurement": "activity in catalyzing the transfer of GDP-FAmP4Biotin, as compared with HpFT-4HR", "setting": "[1]; donor GDP-FAmP4Biotin 1 mM", "value": "significantly improved activity"},
      {"measurement": "activity in catalyzing the transfer of GDP-FAzP4Biotin, as compared with HpFT-4HR", "setting": "[1]; donor GDP-FAzP4Biotin 1 mM", "value": "significantly improved activity"},
      {"measurement": "catalytic activity among the HpFT variants", "setting": "[2]", "value": "relatively high catalytic activity"},
      {"measurement": "catalytic activity as compared with HpFT-4HR (% of conversion)", "setting": "[2]", "value": "significantly improved catalytic activity"},
      {"measurement": "activity in catalyzing the transfer of GDP-FAmSucMMAE, as compared with HpFT-4HR", "setting": "[3]", "value": "significantly improved activity"},
      {"measurement": "catalytic activity among the HpFT variants", "setting": "[4]", "value": "relatively high catalytic activity"},
      {"measurement": "catalytic activity as compared with HpFT-4HR (% of conversion)", "setting": "[4]", "value": "significantly improved catalytic activity"},
      {"measurement": "activity in catalyzing the transfer of GDP-FAmSucMMAE, as compared with HpFT-4HR", "setting": "[5]", "value": "significantly improved activity"},
      {"measurement": "activity in catalyzing the transfer of GDP-FAmSucMMAE, as compared with HpFT-4HR", "setting": "[6]", "value": "significantly improved activity"},
      {"measurement": "activity in catalyzing the transfer of GDP-FAmSucMMAE, as compared with HpFT-4HR", "setting": "[7]", "value": "significantly improved activity"}
    ]}
  ]
}
